Patent publication US20170322217A1

Target: Rad50 (Homo sapiens (Human)) (UniProt Q92878)
Experiment: SILAC LC-MS/MS of anti-Flag immunoprecipitate, heavy (EVI1-Flag) over light (Flag control)

Chain of UniProt Q92878 (Q92878 whole entry): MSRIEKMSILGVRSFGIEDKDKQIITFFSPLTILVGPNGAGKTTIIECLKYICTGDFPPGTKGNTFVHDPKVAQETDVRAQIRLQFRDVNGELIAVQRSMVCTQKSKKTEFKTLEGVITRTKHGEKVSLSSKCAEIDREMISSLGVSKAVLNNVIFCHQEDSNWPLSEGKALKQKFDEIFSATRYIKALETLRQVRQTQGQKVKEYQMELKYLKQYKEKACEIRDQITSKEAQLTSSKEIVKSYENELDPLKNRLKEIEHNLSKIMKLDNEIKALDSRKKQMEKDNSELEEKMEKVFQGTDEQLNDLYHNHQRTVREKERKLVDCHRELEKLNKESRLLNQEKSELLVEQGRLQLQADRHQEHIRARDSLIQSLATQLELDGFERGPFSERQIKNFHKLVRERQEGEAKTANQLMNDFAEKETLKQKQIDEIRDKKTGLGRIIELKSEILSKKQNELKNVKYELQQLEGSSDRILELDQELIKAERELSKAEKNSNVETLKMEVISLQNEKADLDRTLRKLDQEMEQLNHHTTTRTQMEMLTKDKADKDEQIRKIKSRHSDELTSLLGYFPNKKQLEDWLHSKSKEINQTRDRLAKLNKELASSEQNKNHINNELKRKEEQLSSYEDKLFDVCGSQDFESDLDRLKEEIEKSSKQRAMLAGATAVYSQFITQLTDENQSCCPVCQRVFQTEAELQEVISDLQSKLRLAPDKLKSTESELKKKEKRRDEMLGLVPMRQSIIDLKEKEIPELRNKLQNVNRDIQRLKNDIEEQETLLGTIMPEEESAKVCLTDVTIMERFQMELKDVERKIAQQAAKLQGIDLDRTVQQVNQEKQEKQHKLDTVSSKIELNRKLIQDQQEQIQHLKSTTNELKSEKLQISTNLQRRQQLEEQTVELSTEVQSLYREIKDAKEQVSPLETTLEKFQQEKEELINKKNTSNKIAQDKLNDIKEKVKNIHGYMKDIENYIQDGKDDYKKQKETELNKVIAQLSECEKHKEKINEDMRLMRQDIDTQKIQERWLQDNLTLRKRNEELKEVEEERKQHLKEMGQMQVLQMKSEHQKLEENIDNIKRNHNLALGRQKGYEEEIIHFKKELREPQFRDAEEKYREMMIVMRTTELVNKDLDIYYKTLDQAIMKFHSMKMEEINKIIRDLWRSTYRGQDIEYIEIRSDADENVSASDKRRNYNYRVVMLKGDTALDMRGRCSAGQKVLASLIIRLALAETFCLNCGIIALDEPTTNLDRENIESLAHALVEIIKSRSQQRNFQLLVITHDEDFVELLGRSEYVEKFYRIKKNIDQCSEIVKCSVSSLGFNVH

Evi1 enrichment (H/L ratio): 7.11 to 47.8 H/L ratio
Substance: EVI1-Flag construct (Evi1 protein with Flag tag, expressed in SKOV3 cells) (from UniProt Q03112 1-1051)
